Our source for the protein production values is a protein production outcome set (Wang et al. 2014).
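Note: failed if final PepcDB status was selected cloned or expressed and not failed if soluble or beyond.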

This data set in a line: label from the status in PepcDB records.
For “VEGPCEAKIECSDNGDGTCSVSYLPTKPGEYFVNILFEEVHIPGSPFKADIEMPFDPSKVVASGPGLEHGKVGEAGLLSVNCSEAGPGALGLEAVSDSGTKAEVSIQNNKDGTYAVTYVPLTAGMYTLTMKYGGELVPHFPARVKVEPAVDTSRIKVFGPGIEGKDVFREATTDFTVDSRPLTQVGGDHIKAHIANPSGASTECFVTDNADGTYQVEYTPFEKGLHVVEVTYDDVPIPNSPFKVAVTEGCQPSRVQAQGPGLKEAFTNKPNVFTVVTRGAGIGGLGITVEGPSESKINCRDNKDGSCSAEYIPFAPGDYDVNITYGGAHIPGSPFR”, the protein production entry was “failed”. On to “VEVESFLVHPGDLLQLRCRLRDDVQSINWLRDGVQLAESNRTRITGEEVEVQDSVPADSGLYACVTSSPSGSDTTYFSVNVSDALP”, for which the protein production result is on record as “not failed”.

With “VGDHDSHEVMQRLDALLPTLRERAQETEDLRRIPDDSMKALQETGFFRLLQPEQWGGYQADPVLFYSAVRKIASACGSTGWVSSIIGVHNWHLALFSQQAQEDVWGNDTDVRISSSYAPMGAGQVVDGGYTVNGAWAWSSGCDHASWAVLGGPVIKDGRPVDFVSFLIPREDYRIDDVWNVVGLRGTGSNTVVVEDVFVPTHRVLSFKAMSNLTAPGLERNTAPVYKMPWGTIHPTTISAPIVGMAYGAYDAHVEHQGKRVRAAFAGEKAKDDPFAKVRIAEASSDIDAAWRQLSGNVADEYALLVAGEEVPFELRLRARRDQVRATGRAISSIDKLFESSGATALANGTPLQRFWRDAHAGRVHAANDPERAYVMYGTGEFGLPITDTMV”, the protein production entry is listed as “not failed”. With “VGKLKIYFGFAAGVGKTYAMLSDAKDQLAAGVDVVAGYIEPHAREETLRMLEGIPIIPPKAINHKNIALKEFDLDEALKRKPELILVDELAHTNASGVRNKKRFQDVEELLQAGIDVYTTVNVQHIESLNDIVEGITKVAVRETIPDYVFDEADRVKLIDIEPDELLKRLEQGKIYQPARAKTAMQNFFTRENLKLLREIAMRKAADRISHEYDQTGIYPE” the entry was “not failed”; with “VGPHAALMDATYRHQRRIYDITRRHFLLGRDELIAALAPPPGARVLEIACGTGRNLDLIDRRWPGLRLYGLDISEEMLRTARARLGTRARLAQGDATDFDARALFGAARFERIVISYALSMIPDWRPALAHAASLLSKEGELHVVDFGDQAGLPRWFRTGLRGWIGRFHVEPRDDLGAALAEVAAGVG”, “failed”; with “VHVEDALTYLDQVKIRFGSDPATYNGFLEIMKEFKSQSIDTPGVIRRVSQLFHEHPDLIVGFNAFLP”, “not failed”. Turning to “VIKKEGPGWRIIFDSSRDNFSTLIGGETWAIELDKSEWKILVEVVMELCDQYKLVKEQLMGDEDITLELERRPWLAILNGDQYGWNLRLILSASGLFNRGAEVYWPRHVTNNVVNAMRSMWDSDYL”, the protein production result is recorded as “not failed”. With “VISSDVIRGYVDTIILSLLIEGDSYGYEISKNIRIKTDELYVIKETTLYSAFARLEKNGYIKSYYGEETQGKRRTYYRITPEGIKYYKQKCEEWELTKKVINKFVKELESNGDN” the entry was “not failed”.

“VKFLTVNDDILSMPQARNFCASAGGYLADDLGDDKNNFYSSIAANTQFWIGLFKNSDGQFYWDRGQGINPDLLNQPITYWANGEPSNDPTRQCVYFDGRSGDKSKVWTTDTCATPRPFICQKHRYDSDHKPNTIGDA”: the protein production entry is on record as “not failed”. Regarding “VLAEYASRIVSAEEAVKHIKNGERVALSHAAGVPQSCVDALVQQADLFQNVEIYHMLCLGEGKYMAPEMAPHFRHITNFVGGNSRKAVEENRADFIPVFFYEVPSMIRKDILHIDVAIVQLSMPDENGYCSFGVSCDYSKPAAESAHLVIGEINRQMPYVHGDNLIHISKLDYIVMADYPIYSLAKPKIGEVEEAIGRNCAELIEDGATLQLGIGAIPDAALLFLKDKKDLGIHTEMFSDGVVELVRSGVITGKKKTLHPGKMVATFLMGSEDVYHFIDKNPDVELYPVDYVNDPRVIAQNDNMVSINSCIEIDLMGQVVSECIGSKQFSGTGGQVDYVRGAAWSKNGKSIMAIPSTAKNGTASRIVPIIAEGAAVTTLRNEVDYVVTEYGIAQLKGKSLRQRAEALIAIAHPDFREELTKHLRKRFG”, the protein production result was “not failed”. Regarding “VLWISSSPVLQRFDKPLLQYISKDVNVAQWEYRHHRDEGSSIDEAVDLLAEFMGQCPYPVNLAGHAAGGAIALSFARRYPKKVRSLSLLAVASQPANTWHAHYYLQRQLFTISREQILANTVRNLFGEQPSHTTKKLVAVLDRDLEQSPLLHSLFKLVHLPEGGVNMPLMICGSKNDPIVSSTTLQDWSNCLKPEDHLWECPKGHHFFHYFYPQTVGDQLLNFWQ”, the protein production result was “failed”.
